Results published in PMC6274722.
deuterohemin = iron-porphyrin joined to the peptide N-terminus

Biological target: amyloid β 1-42 peptide (Aβ1-42) (UniProt P05067)

particle size (DLS, five days) and morphology (TEM, three days) of Aβ1-42 incubated with DhHP-6 at 10 μM:10 μM, 37 °C: 396 nm
Binder: deuterohemin-AHTVEK-NH2 (also: His2 imidazole is the fifth ligand of the deuterohemin iron) [Deuterohemin-AlaHisThrValGluLys (DhHP-6)]
